According to patent US20230066984A1, “New Carbon Glycoside Glycosyltransferase and Use Thereof” (CAS Center for Excellence in Molecular Plant Sciences, priority 2020, published 2023):
Substitutions are numbered along the chain they refer to.

B1: SbCGT2: C-glycosyltransferase from Sorghum, SEQ ID NO: 7 (protein)
chain: MAPSAMPASGDHTGATPHVVLLPSAGMGHLVPFARLAVALSEGHGCDVSFAAVLPTVSSAESRHLRALFAAAPAVRRLDFRLAPFDESQFPGADPFFLRFEALRRSAPLLGPLLDAAQASALVTDIVLASVVLPVAKARGVPCYVLFTSSAAMLSLCAYFPAHLDANAAAGGGRLGVGDVDIPGVYRIPKSSVPQALHDPKHLFTQQFVANGRGLVAADGILVNTFDAFEPDAITALRQGSVVSDFPPVFAVGPLQPVRFQVAEKPAHYMRWLSAQPARSVVYVSFGSRKAISTDQLRELAAGLEASGQRFLWVVKSTVVDRDDAADLADLLGDGFLERVQGRAFVTKGWVEQEEILQHGSVGLFISHCGWNSVTEAAAFGVPVLAWPRFGDQRVNAAVVARGGLGAWEERWTWDGEKGLVTGEEVAEKINAVVGNDVVARKAARVGDAAAAAAGKGGTSYQSLADFVGRCRDAGW
modifications: Sorghum bicolor
B2: Phyllostachys edulis (moso bamboo) C-glycosyltransferase PhCGT1, SEQ ID NO: 1 (Phyllostachys edulis) (protein)
chain: MPTSGGRTGDRPHVILLPSAGMGHLVPFSRLAVALSSGHGCDVSVVAVLPTVSAAESRHLQGLLDASPAVRRLDLHLAPFDESEFPGADPFFLRFEAMRRSAPLLGPLLADTGASALVTDIALASVVIPVAKEIHLPCYVLFTASAAMLSFCAYFPTYLDTNAGRVVGDVDIPGVYRIPKASIPQALHDPNHLFTRQFVANGQDLAKADGVLVNTFDALELEAVTALRQGSVAAGFPPVFSVGPLVTVNLPAGEAAKESGNDYMYWLDAQPAQSVVYVSFGSRKAISRDQVRELAIGLEASGQPFLWVVKSTVVDRDDSAELSELLGEGFLERVQGQGFVTKAWVEQEEVLKHESIGLFISHCGWNSVTEAAASGVPVLAWPRFGDQRVNAGVVARGGLGVWVERWSWEGEEDVVSGEEIAEKVKAVMADETVRKKAASVGEAAVKEFADGGTSYRSLTEFVRRCRDLAVLD
notes: pET28a (pCZ86), E. coli BL21(DE3) in fermentation; A1 assay uses crude enzyme supernatant
B3: Phyllostachys glauca (henon bamboo) C-glycosyltransferase PgCGT1, SEQ ID NO: 2 (Phyllostachys glauca) (protein)
chain: B2 chain with G6S, D10G, Q273R, D289N, I296V, P304R, G327D, Q337R, F339L, D413G
notes: A1 assay uses crude enzyme supernatant
B4: TaCGT1-A: C-glycosyltransferase from wheat, SEQ ID NO: 8 (protein, listed as Triticum aestivum)
chain: MPTSGDGPTSQPHVVLLPSAGMGHLVPFSRLAVALSSAHGCDVSLVTVLPTVSSAESSHLEALFGAFPAVRRLEFHLADFDASEFPNADPFFLRFEAMRRSAPLLLGPLLARASATALVTDIALSSVVIPVAKQLRLPCYVLFTASAAMLSLCVHFPAYLDANGNGLVGDVDIPGVYQIPKASVPQALHDPKHLFTRQFVANGRELAKSDGVLVNSFDAFEPEAIAALREGAVSAAGFFPPVFSVGPLAPVSFPAGNNNRADYIQWLEAQPARSVVYVSFGSRKAVARDQLRELAAGLEASGHRFLWVVKSTVVDRDDDADLGELLGEGFLERVQGRGMVTKGWVEQEDVLKQESVGLFISHCGWNSVTEAAAGGLPVLAWPRFGDQRVNAGVVARSGLGVWVDSWSWEGEEGVVSGESIAEKVKAVMGDEIARNKAVSVRDAAAKAVADGGTSYRNLARFAQRCRDGRVRE
B5: TaCGT1-B: C-glycosyltransferase from wheat, SEQ ID NO: 9 (protein, listed as Triticum aestivum)
chain: MPTSGDGSGALPHVVLLPSAGMGHLVPFSRLAVSFSSSDHGCGVSVVTVLPTVSSAESAHLDALFGACPAVRRLDFHLARFDASEFPGADPFFLRFEAMRRSAPLLGPLLAGAGASALVTDIALASVVIPVARELRLPCYVLFTASAAMLSLCVHFPAYLDANAGGPVGDVDIPGVYRVPKASIPQALHHPEHLFTRQFVANGRELAKSDGLLVNSFDEFEPEAISALRDGSVAAGFPPVFSVGPLAPVSFSAGEPPENQADYMRWLEAQPTRSVVYVSFGSRKAISKDQLKELAVGLEASGHRFLWVVKSTVVDREDEAELSELLGEGFLERVHGRGMVTKGWVEQEEVLKQESIGLFISHCGWNSVTEAAANGLPVLAWPRFGDQRVNAGVVARSGLGVWEERWSWEGEEGVVSGENIAEKVKAVMADETVRNKAVSVQDAAAKAVADGGTSYRSLAQFVQRCRDLSVSK

Key:
[1] = In vitro functional identification of C-glycosyltransferases by HPLC, phloretin as glycosyl receptor; format: biochemical; details: 0.1 mM phloretin, 0.3 mM UDP glucose, crude enzyme, 37° C., 2 h, HPLC (FIG. 1A)
Protocol: The recombinant plasmid was transformed into competent cells of Escherichia coli BL21 (DE3), and cultured overnight at 37° C. in solid LB medium (kanamycin 50 μg/mL). Single colony was transferred to a 2 mL LB liquid medium (containing 50 μg/ml kanamycin) and incubated overnight. The bacterial fluid was transferred to a new 100 ml LB liquid medium with antibiotics and incubated at 37° C. and 250 r/min until OD600 reached 0.5-0.6. The culture was cooled down to 16° C. in a water bath. Then inducer IPTG was added at a final concentration of 0.1 mM. The mixture was cultured at 16° C. for low temperature induction and 180 r/min for 20 h. The BL21(DE3) recombinant strain carrying the pET28a empty plasmid was used as a blank control, and the culture operation was the same as above. The bacteria were harvested by centrifugation (6000 r/min, 5 min), re-suspended in 1 mL of lysis buffer Buffer A (20 mM Tris-HCl, pH 8.0; 100 mM NaCl), and DNase was added to a final concentration of 5 μg/mL, Mg^2+ to a final concentration of 2 mM; protease inhibitor PMSF to a final concentration of 1 mM; the bacteria were incubated on ice for 30 min and then sonicated; refrigerated centrifugation (10,000 rpm, 30 min, 4° C.), filtered through a 0.2 µm filter membrane to obtain the supernatant crude enzyme solution, and added 20% glycerol for cryopreservation (−20° C.).
(§1) The in vitro enzyme catalytic assay system is 100 μL. The reaction system includes: 0.1 mM glycosyl receptor (phloretin or 2-hydroxynaringenin), 0.3 mM UDP glucose, 25 μL supernatant crude enzyme solution, and Buffer A is used to make up the volume to 100 μL, and react at 37° C. for 2 h. After the reaction was completed, an equal volume of methanol was added to terminate the reaction, and HPLC was used for product analysis. HPLC detection conditions: chromatographic column: reverse phase C18 column [SilGreen ODS column (ø 4.6×250 mm)], detection wavelength 280 nm; mobile phase: acetonitrile (0.1% formic acid)-water (0.1% formic acid) mixture gradient elution, with increased ratio from 5:95 to 100:0 within 0 to 20 min, and the flow rate was 1 mL/min.

[2] = substrate: O=C1C[C@@](O)(c2ccc(O)cc2)Oc2cc(O)cc(O)c21; experiment: in vitro kinetic parameters of C-glycosyltransferase PhCGT1 with 2-hydroxynaringenin (FIG. 5); format: biochemical; details: other: PhCGT1; substrate 2-hydroxynaringenin; 37.0 °C
Protocol: as §1
(§2) The Km value is the substrate concentration when the enzymatic reaction presents half of its maximum reaction rate, and the lower the Km value, the higher the enzymatic activity of the C-glycosyltransferase.

[3] = substrate: O=C1C[C@@](O)(c2ccc(O)cc2)Oc2cc(O)cc(O)c21; experiment: in vitro kinetic parameters of C-glycosyltransferase PgCGT1 with 2-hydroxynaringenin (FIG. 5); format: biochemical, henon bamboo (Phyllostachys glauca); details: other: PgCGT1; substrate 2-hydroxynaringenin; 37.0 °C
Protocol: as §1, §2

Row | Molecule | conversion of substrate phloretin to C-glycosylated product (Nothofagin) [1] | Km [2] [µM] | Km [3] [µM] | 5′ C-glycosylation of 3′-glycosylated phloretin giving phloretin-3′,5′-C-diglucoside [1]
1 | B1 | can convert the substrate phloretin to a product having a shorter retention time |  |  | 
2 | B2 | can convert the substrate phloretin to a product having a shorter retention time | 1.75 ± 0.66 |  | 
3 | B3 | can convert the substrate phloretin to a product having a shorter retention time |  | 2.75 ± 0.75 | 
4 | B4 | can convert the substrate phloretin to a product having a shorter retention time |  |  | can catalyze the glycosylation of the 3′-glycosylated phloretin at the 5′ position
5 | B5 | can convert the substrate phloretin to a product having a shorter retention time |  |  | 
